System: c-Abl (mouse)
Assay: phosphorylation enrichment, bacterial display (enrichment ratio); higher = better substrate or ligand; peptides without Tyr show the background
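Also: 11-residue human phosphosite peptides and single-mutation variants displayed on the E. coli surface, counted by deep sequencing, each peptide's frequency after selection divided by its frequency in the unselected input library; frequency after pTyr selection over input frequency; kinase dosed for 20-30% of maximal phosphorylation in three min.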

Sequence | phosphorylation enrichment
LQTYRYHGLSM [PDHA1_Y289_H292L] | 0.564
ADCRYYAFPQM [GAMT_Y223] | 7.97
SQSAKYDMAED [TTC21B_Y1213_I1208S] | 0.661
MFNPFYGLFEF [NEDD4L_Y680_YF] | 0.775
STDDGYIDLQF [TMEM230_Y29] | 0.695
LTFPDYLPCSV [SAG_Y129] | 1.13
PSPTRYSLSPS [RANBP2_Y785] | 1.5
IFGVSYGEYRY [CFTR_Y512_D513G] | 0.632
RAVLLYEFVGK [NATD1_Y45_YF] | 1.54
VECHPYFTQPK [AKR1D1_Y199] | 0.617
LVSCTYQLATG [FGFR2_Y608_R612T] | 0.83
MARDIYRASYY [ALK_Y1278] | 1.77
SFDLDYDSVQP [MYC_Y16_N11S_YF] | 0.811
SASSSYSRSRS [SRRM4_Y549_R547S] | 0.408
TTGGFYSYGGG [KRT24_Y120_A115T] | 0.692
GADDSYYTVRS [ZAP70_Y492_A495V] | 0.79

Biological target: EPHB1 (UniProt P54762)
Assay: as above

Chain of EPHB1 (P54762 whole entry, looked up): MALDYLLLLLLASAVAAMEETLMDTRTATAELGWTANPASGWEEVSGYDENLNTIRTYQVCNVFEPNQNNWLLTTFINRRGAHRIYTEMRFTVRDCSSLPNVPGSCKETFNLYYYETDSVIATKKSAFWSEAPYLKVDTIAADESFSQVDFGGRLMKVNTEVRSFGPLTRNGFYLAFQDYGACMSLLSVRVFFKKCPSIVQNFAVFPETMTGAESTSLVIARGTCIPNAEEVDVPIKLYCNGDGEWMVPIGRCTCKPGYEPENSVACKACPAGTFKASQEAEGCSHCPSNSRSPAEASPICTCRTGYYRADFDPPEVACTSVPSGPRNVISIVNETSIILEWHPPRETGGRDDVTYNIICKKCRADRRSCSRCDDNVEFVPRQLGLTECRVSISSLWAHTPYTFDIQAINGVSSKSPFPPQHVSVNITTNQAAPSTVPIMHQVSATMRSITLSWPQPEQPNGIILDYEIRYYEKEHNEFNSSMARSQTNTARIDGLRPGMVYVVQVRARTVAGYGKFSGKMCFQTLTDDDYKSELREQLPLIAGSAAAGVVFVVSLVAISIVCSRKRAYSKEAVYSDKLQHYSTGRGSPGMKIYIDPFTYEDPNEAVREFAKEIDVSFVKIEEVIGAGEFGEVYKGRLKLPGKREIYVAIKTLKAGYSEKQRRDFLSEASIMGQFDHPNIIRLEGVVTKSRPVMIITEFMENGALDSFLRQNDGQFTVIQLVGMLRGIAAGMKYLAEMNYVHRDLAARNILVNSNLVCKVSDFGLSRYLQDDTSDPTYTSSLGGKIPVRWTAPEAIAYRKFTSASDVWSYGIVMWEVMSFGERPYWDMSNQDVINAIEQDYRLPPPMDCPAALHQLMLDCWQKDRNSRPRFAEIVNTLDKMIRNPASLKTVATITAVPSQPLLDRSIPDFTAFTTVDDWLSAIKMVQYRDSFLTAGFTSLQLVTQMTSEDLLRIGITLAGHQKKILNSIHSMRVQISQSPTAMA

Sequence | phosphorylation enrichment
LQTYRYHGLSM [PDHA1_Y289_H292L] | 0.673
ADCRYYAFPQM [GAMT_Y223] | 9.71
SQSAKYDMAED [TTC21B_Y1213_I1208S] | 0.461
MFNPFYGLFEF [NEDD4L_Y680_YF] | 0.513
STDDGYIDLQF [TMEM230_Y29] | 0.701
LTFPDYLPCSV [SAG_Y129] | 0.879
PSPTRYSLSPS [RANBP2_Y785] | 0.536
IFGVSYGEYRY [CFTR_Y512_D513G] | 0.852
RAVLLYEFVGK [NATD1_Y45_YF] | 23.8
VECHPYFTQPK [AKR1D1_Y199] | 0.525
LVSCTYQLATG [FGFR2_Y608_R612T] | 0.717
MARDIYRASYY [ALK_Y1278] | 0.466
SFDLDYDSVQP [MYC_Y16_N11S_YF] | 0.644
SASSSYSRSRS [SRRM4_Y549_R547S] | 0.275
TTGGFYSYGGG [KRT24_Y120_A115T] | 1.18
GADDSYYTVRS [ZAP70_Y492_A495V] | 0.68

Biological target: Hck (UniProt P08631)
Assay: as above

Chain of Hck (P08631 whole entry, looked up): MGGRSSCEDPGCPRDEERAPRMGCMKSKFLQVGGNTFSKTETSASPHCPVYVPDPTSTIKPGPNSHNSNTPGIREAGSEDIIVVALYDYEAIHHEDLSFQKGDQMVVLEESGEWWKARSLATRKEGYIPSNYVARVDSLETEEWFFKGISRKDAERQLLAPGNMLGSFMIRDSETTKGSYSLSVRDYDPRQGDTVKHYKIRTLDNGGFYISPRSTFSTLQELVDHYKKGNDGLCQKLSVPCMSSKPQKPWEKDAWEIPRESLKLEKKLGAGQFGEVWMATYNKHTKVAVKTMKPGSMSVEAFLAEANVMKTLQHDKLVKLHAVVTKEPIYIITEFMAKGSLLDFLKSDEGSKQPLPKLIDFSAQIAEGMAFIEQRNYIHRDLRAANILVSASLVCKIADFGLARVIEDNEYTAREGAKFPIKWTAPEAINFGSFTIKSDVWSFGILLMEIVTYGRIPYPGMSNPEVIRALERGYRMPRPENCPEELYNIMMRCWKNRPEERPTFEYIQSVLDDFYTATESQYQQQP

Sequence | phosphorylation enrichment
LQTYRYHGLSM [PDHA1_Y289_H292L] | 0.648
ADCRYYAFPQM [GAMT_Y223] | 3.1
SQSAKYDMAED [TTC21B_Y1213_I1208S] | 0.582
MFNPFYGLFEF [NEDD4L_Y680_YF] | 2.35
STDDGYIDLQF [TMEM230_Y29] | 0.521
LTFPDYLPCSV [SAG_Y129] | 0.479
PSPTRYSLSPS [RANBP2_Y785] | 0.515
IFGVSYGEYRY [CFTR_Y512_D513G] | 4.11
RAVLLYEFVGK [NATD1_Y45_YF] | 8.33
VECHPYFTQPK [AKR1D1_Y199] | 0.515
LVSCTYQLATG [FGFR2_Y608_R612T] | 0.631
MARDIYRASYY [ALK_Y1278] | 1.01
SFDLDYDSVQP [MYC_Y16_N11S_YF] | 0.688
SASSSYSRSRS [SRRM4_Y549_R547S] | 0.412
TTGGFYSYGGG [KRT24_Y120_A115T] | 2.39
GADDSYYTVRS [ZAP70_Y492_A495V] | 2.39

System: AncSZ
Assay: as above

Sequence | phosphorylation enrichment
LQTYRYHGLSM [PDHA1_Y289_H292L] | 0.927
ADCRYYAFPQM [GAMT_Y223] | 4.46
SQSAKYDMAED [TTC21B_Y1213_I1208S] | 0.9
MFNPFYGLFEF [NEDD4L_Y680_YF] | 0.998
STDDGYIDLQF [TMEM230_Y29] | 1.22
LTFPDYLPCSV [SAG_Y129] | 2.34
PSPTRYSLSPS [RANBP2_Y785] | 0.976
IFGVSYGEYRY [CFTR_Y512_D513G] | 0.9
RAVLLYEFVGK [NATD1_Y45_YF] | 2.71
VECHPYFTQPK [AKR1D1_Y199] | 0.938
LVSCTYQLATG [FGFR2_Y608_R612T] | 1.41
MARDIYRASYY [ALK_Y1278] | 0.685
SFDLDYDSVQP [MYC_Y16_N11S_YF] | 1.78
SASSSYSRSRS [SRRM4_Y549_R547S] | 0.555
TTGGFYSYGGG [KRT24_Y120_A115T] | 1.03
GADDSYYTVRS [ZAP70_Y492_A495V] | 1.43

Reference: the supplement of paper PMC10065799, “High-throughput profiling of sequence recognition by tyrosine kinases and SH2 domains using bacterial peptide display” (eLife, 2023)
